Here are results for three substances from US20140206011A1.

The target of assay [1] is FadA on wild-type Fusobacterium nucleatum 12230 (Fusobacterium nucleatum). The experiment in a line: cell-based or functional assay.
For assay [2], the target named is E-cadherin (human) (UniProt P12830). The experiment in a line: cell-based or functional assay.
Chain of UniProt P12830 (P12830 155-882): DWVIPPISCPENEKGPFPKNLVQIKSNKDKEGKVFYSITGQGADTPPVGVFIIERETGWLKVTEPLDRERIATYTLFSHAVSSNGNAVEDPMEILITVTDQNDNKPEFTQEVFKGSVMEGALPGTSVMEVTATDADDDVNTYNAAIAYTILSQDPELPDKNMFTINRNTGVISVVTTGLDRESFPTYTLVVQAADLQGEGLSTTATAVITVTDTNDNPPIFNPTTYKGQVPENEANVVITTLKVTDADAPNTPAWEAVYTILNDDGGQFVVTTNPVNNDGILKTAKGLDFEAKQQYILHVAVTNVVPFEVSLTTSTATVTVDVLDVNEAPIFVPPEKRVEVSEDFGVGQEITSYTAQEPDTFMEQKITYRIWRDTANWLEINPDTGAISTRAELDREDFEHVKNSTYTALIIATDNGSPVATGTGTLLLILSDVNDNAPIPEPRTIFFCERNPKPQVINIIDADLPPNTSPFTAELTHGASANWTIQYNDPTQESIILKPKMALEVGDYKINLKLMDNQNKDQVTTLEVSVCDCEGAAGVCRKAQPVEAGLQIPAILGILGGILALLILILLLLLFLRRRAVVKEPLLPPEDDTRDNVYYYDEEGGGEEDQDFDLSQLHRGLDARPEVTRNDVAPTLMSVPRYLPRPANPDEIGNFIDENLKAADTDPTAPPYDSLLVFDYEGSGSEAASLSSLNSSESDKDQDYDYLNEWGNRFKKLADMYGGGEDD

On to “GST-EC5 fusion protein (from UniProt P12830 594-697)”, for which, in assay [1], the inhibition of Fn attachment and invasion of HCT116 amounted to 0.1 µM.
In assay [2], “FadA on wild-type Fusobacterium nucleatum 12230” returned an attachment level of Fn to HCT116 (percent bacteria recovered relative to inoculum), FIG. 3C without inhibition of 4.4%; an attachment level of Fn to HCT116 without inhibition, FIG. 4B of 6.3%; an attachment level of Fn to HCT116 without inhibition, FIG. 4C of 5.9%; an invasion level of Fn into HCT116 (percent bacteria recovered relative to inoculum), FIG. 3C without inhibition of 1.3%. For the same substance, in assay [2], the invasion level of Fn into HCT116 without inhibition, FIG. 4B came out at 1.6% and the invasion level of Fn into HCT116 without inhibition, FIG. 4C was determined as 1.4%.
As to FadAc, in assay [2], the HCT116 cell growth (cell proliferation assay) is 1 mg/mL and the HCT116 xenograft tumor growth in nude mice worked out at 20%.
